{
  "source": "patent US6613211B1",
  "about": "“Capillary electrokinesis based cellular assays” (Aclara BioSciences, Inc., priority 1999, dated 2003)",
  "key": {"fMLP receptor [1]": {"target": "T1, fMLP receptor (Homo sapiens, UniProt P21462)", "T1 sequence (P21462 1-350)": "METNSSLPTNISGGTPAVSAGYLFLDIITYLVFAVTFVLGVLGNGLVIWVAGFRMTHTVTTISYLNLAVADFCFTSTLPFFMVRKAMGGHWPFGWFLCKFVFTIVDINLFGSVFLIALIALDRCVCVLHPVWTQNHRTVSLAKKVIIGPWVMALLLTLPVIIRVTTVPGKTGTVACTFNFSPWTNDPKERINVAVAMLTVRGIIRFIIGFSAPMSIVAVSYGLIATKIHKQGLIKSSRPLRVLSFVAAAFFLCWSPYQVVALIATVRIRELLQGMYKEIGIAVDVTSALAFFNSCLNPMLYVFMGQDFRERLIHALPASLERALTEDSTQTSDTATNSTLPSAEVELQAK", "assay": "Capillary cytometric competition of labeled fMLPK binding to cells with a high level of fMLP receptor (syringe pump)", "protocol": "In the next study, pumping means was employed to move cells through a capillary. […] The buffer solution was 140 mM NaCl, 1 mM KH2PO4, 5 mM Na2HPO4, 1.5 mM CaCl2, 0.3 mM MgSO4, 1 mM MgCl2, 0.2% BSA. The cell concentration in the reservoir was 10^6/ml and the receptor concentration was 413 pM. […] […] The device was comprised of a reservoir having a volume of 500 μl into which was introduced a capillary having an I.D. of 100 μm. In place of an electroosmotic pump, a syringe pump operating at 500 μl/min applied to the other end of the capillary was employed. The reading was taken at about 100 mm from the capillary inlet."}, "fMLP receptor [2]": {"target": "T1, fMLP receptor", "assay": "Calibration study, Cy5-fMLPK fluorescence with cells read with P/ACE", "assay_type": "binding", "conditions": "solution 3: 25 μl cells, 25 μl 12 nM Cy5-fMLPK, 0.25 μl 1 mM fMLPK", "protocol": "(§1) In the next study, pumping means was employed to move cells through a capillary. The cells were cultured cells having a high level of the fMLP receptor on the surface. The buffer solution was 140 mM NaCl, 1 mM KH2PO4, 5 mM Na2HPO4, 1.5 mM CaCl2, 0.3 mM MgSO4, 1 mM MgCl2, 0.2% BSA. The cell concentration in the reservoir was 10^6/ml and the receptor concentration was 413 pM. […] The labeled ligand was 4 nM, while the ligand concentration was varied from 2.5 nM to 250 nM. The device was comprised of a reservoir having a volume of 500 μl into which was introduced a capillary having an I.D. of 100 μm. In place of an electroosmotic pump, a syringe pump operating at 500 μl/min applied to the other end of the capillary was employed. The reading was taken at about 100 mm from the capillary inlet. The results are shown in FIGS. 4 and 5, where TR stands for tracer, RC refers to receptor and TRC refers to both Tracer and Receptor.\nIn and initial study for calibration, four solutions were prepared: (1) 25 μl buffer and 25 μl Cy5-fMLPK; (2) 25 μl cells and 25 μl 12 nM Cy5-fMLPK; (3) 25 μl cells and 25 μl 12 nM Cy5-fMLPK and 0.25 μl 1 mM fMLPK; and (4) 25 μl cells and 25 μl buffer. The flurescence was read with the aid of a P/ACE, which covers a volume of 50 μl."}, "fMLP receptor [3]": {"target": "T1, fMLP receptor", "assay": "Cy-5-fMLPK fluorescence with cells read with Hitachi fluorimeter", "assay_type": "binding", "conditions": "solution 3: 125 μl Cy-5-fMLPK, 125 μl cells, 1 μl 1 mM fMLPK", "protocol": "as §1\nIn the next study four solutions were prepared using the Cy-5 conjugate of fMLPK. The compositions are as follows: (1) 125 μl buffer and 125 μl Cy-5-fMLPK; (2) 125 μl Cy5-fMLPK and 125 μl cells; (3) 125 μl Cy-5-fMLPK, 125 μl cells and 1 μl 1 mM fMLPK; and 125 μl buffer and 125 μl cells. An Hitachi fluorimeter was used to read scence which covers 220 μl. For buffer, the readings were 34,33."}},
  "note": "“And” between values parts separate entries of the source, which are not always exact repeats. Identical values can stand only once. Where no end group is shown, it is not given here. The star is where a group is joined. For = O=C*",
  "data": [
    {"substance": "N-formyl-Met-Leu-Phe-Lys (For-MLFK) [fMLPK]", "values": [
      {"measurement": "total peak height", "setting": "fMLP receptor [1]; fMLPK 2.5 nM", "value": 19},
      {"measurement": "total peak height", "setting": "fMLP receptor [1]; fMLPK 250 nM", "value": "< 1"},
      {"measurement": "total peak height", "setting": "fMLP receptor [1]; fMLPK 2.5 μM", "value": 0},
      {"measurement": "fluorescence, column A", "setting": "fMLP receptor [2]", "value": "1,97 and 1.99"},
      {"measurement": "fluorescence, column B", "setting": "fMLP receptor [2]", "value": "1.98 and 1.97"},
      {"measurement": "fluorescence, column C", "setting": "fMLP receptor [2]", "value": "2.06, 2.06"},
      {"measurement": "fluorescence, column D", "setting": "fMLP receptor [2]", "value": "1.95 and 1.99"},
      {"measurement": "fluorescence, column A", "setting": "fMLP receptor [3]", "value": 844},
      {"measurement": "fluorescence, column C", "setting": "fMLP receptor [3]", "value": 826},
      {"measurement": "fluorescence, column D", "setting": "fMLP receptor [3]", "value": 812}
    ]}
  ]
}
